Data on one substance can be found in paper PMC6051418.

This assay addresses R28A-HD5 (human). Briefly: crystal structure.

With R28A-HD5 (peptide), the stoichiometry N was 2.
